Literature values as cited in PMC7060279.
pKd: −log10 of the molar value.

Columns and labels:
TLR4 (Homo sapiens) = TLR4 (Homo sapiens) (UniProt O00206)
TLR4/MD2 (Homo sapiens) = TLR4/MD2 (Homo sapiens) (UniProt O00206)
Chain of TLR4/MD2 (Homo sapiens) (O00206 24-839, chain 1 of 2): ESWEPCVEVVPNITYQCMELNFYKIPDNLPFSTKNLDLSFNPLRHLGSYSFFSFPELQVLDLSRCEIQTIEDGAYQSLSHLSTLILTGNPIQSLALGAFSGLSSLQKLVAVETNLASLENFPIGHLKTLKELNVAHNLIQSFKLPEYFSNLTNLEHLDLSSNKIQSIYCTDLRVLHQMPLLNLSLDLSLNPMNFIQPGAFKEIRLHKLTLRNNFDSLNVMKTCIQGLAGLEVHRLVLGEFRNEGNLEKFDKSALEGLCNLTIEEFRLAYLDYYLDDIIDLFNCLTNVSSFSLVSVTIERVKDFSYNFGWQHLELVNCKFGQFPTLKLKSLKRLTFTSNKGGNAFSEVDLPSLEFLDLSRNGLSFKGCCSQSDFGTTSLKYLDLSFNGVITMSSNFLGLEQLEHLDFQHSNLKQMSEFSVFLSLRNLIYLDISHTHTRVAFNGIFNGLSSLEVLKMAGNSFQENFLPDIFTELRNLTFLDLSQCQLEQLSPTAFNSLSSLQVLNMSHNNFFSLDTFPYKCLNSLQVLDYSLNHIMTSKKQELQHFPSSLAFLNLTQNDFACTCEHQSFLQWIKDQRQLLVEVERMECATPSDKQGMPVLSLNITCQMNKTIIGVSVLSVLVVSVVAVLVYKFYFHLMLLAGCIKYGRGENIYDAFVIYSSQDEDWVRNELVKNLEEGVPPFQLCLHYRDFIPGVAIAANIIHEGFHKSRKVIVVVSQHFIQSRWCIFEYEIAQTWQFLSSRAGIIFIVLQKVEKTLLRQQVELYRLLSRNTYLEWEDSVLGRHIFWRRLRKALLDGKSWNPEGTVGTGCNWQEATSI
Chain of TLR4/MD2 (Homo sapiens) (Q9Y6Y9 19-160, chain 2 of 2, further chain): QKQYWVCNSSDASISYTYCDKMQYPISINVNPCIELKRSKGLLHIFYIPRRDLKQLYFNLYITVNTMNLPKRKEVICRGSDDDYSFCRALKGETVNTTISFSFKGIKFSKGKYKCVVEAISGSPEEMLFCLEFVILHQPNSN

Chain of HMGB1 (P09429 whole entry): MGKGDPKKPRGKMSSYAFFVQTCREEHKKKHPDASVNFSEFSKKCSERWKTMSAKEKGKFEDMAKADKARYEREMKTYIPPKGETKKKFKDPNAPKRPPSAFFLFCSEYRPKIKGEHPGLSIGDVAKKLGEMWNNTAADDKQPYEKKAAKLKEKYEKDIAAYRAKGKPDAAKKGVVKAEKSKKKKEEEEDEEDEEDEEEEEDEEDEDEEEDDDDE
Chain of TLR4 (Homo sapiens) (O00206 24-839): as the sequence (O00206 24-839, chain 1 of 2) above

For HMGB1 (from UniProt P09429), the pKd (TLR4 (Homo sapiens)) is given as 6.19 and the pKd (TLR4/MD2 (Homo sapiens)) is given as 6.38.
